To fix the notation:
B1: 10-7 (ssDNA)
DNA: CGTACGGTCGACGCTAGCTGTTGCTGTGCAGGAAGAATGCAGATTCCCAACATGGATCCGAGCTCC
B2: 10-9 (ssDNA)
DNA: GGTCGACGCTAGCTGTTGCTGTGCAGGAAGAATGCAGATTCCCAACATGGATCCGAGCTCCACGTG
B3: 10-6 (ssDNA)
DNA: CGTACGGTCGACGCTAGCTGTTGCTGTGCAGGAAGAATGCAGATTCCCAACATGGATCCGA
B4: 10-4 (ssDNA)
DNA: CGTACGGTCGACGCTAGCTGTTGCTGTGCAGGAAGAATGCAGATTCCCAAC
B5: 10-10 (ssDNA)
DNA: ACGCTAGCTGTTGCTGTGCAGGAAGAATGCAGATTCCCAACATGGATCCGAGCTCCACGTG
B6: 10-5 (ssDNA)
DNA: CGTACGGTCGACGCTAGCTGTTGCTGTGCAGGAAGAATGCAGATTCCCAACATGGA
B7: 10-12 (ssDNA)
DNA: TTGCTGTGCAGGAAGAATGCAGATTCCCAACATGGATCCGAGCTCCACGTG
B8: 10-11 (ssDNA)
DNA: AGCTGTTGCTGTGCAGGAAGAATGCAGATTCCCAACATGGATCCGAGCTCCACGTG
B9: Sample 10 (ssDNA)
DNA: CGTACGGTCGACGCTAGCTGTTGCTGTGCAGGAAGAATGCAGATTCCCAACATGGATCCGAGCTCCACGTG
B10: Sample 7 (ssDNA)
DNA: CGTACGGTCGACGCTAGCCCATGGGAATGCAGACCGCAGGCTGGCTGTAGGAGGGATCCGAGCTCCACGTG
B11: Sample 1 (ssDNA)
DNA: CGTACGGTCGACGCTAGCAAGTATAGACGTGATGCAGGGAATGCAGACCCAGGGGATCCGAGCTCCACGTG
B12: modified 10-3 (XNA)
DNA: CGTACGGTCGACGCTAGCTGTTGCTGTGCAGGAAGAATGCAGATTC
modifications: 2'-OMe on all cytosines; 3' inverted dT (terminal t in listing is the inverted dT)

T1 sequence (Q02223 1-54, one chain of several): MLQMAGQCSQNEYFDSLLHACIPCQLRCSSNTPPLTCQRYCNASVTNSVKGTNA

In one data set the target is T1, BCMA (TNFRSF17) (Homo sapiens, UniProt Q02223 Q02223:1-54). The data set is described as follows: ELONA; best of the truncations. The conditions noted are these: tags: His-tag; label: 5'-biotin. The protocol:
(§1) ELONA was used to evaluate the binding affinity of the aptamers. 500 ng of His-tagged recombinant BCMA was used to coat each well of a 96-well microtiter plate via overnight incubation at 4° C. 1 hour of BSA blocking at room temperature was used to cover non-binding sites and was followed by 4 washes with DNA binding buffer for 5 minutes. Varying concentrations of each aptamer was added into each well for 45-minute incubation with gentle shaking. The wells were then washed with wash buffer 4 times, 5 minutes each. 100 μl of streptavidin-HRP (1:10000 in PBST+0.1% BSA) was added into each well for 30-minute incubation. 4 washes with binding buffer were then performed. 50 μl of TMB was added to each well for a 20-minute incubation. 50 μl of 2M H₂SO₄ was used to stop the reaction, followed by measurement of 450 nm absorbance.
(§2) Their binding affinity was evaluated via ELONA. Binding curves were plotted, followed by calculation of the binding affinity.
Take CGTACGGTCGACGCTAGCTGTTGCTGTGCAGGAAGAATGCAGATTC (ssDNA) [10-3]: binding was put at a Kd of 59 nM.

A further data set concerns the target T1, BCMA (TNFRSF17). The data set is described as follows: ELONA. Conditions: tags: His-tag; label: 5'-biotin. The procedure:
as §1, §2
The molecule B1 returned a dissociation constant (Kd) of 65 nM.

B2: binding was characterised by a dissociation constant (Kd) of 451 nM. This Kd lies about 6.9-fold higher than the previous one.

Take B3: the dissociation constant Kd came to 364 nM.

Take B4: the Kd worked out at 130 nM. This Kd is about 2.8-fold lower than that of the molecule before.

CGTACGGTCGACGCTAGCTGTTGCTGTGCAGGAAG (ssDNA) [10-1] came in with a Kd of 1290 nM.

For B5, binding was characterised by a dissociation constant (Kd) of 1550 nM.

CGTACGGTCGACGCTAGCTGTTGCTGTGCAGGAAGAATGCA (ssDNA) [10-2] had an equilibrium dissociation constant (Kd) of 240 nM.

Regarding B6, the affinity, expressed as Kd, was 579 nM.

The molecule B7 had a Kd of 542 nM. The Kd values of the last two molecules are within 1.5-fold of each other.

In the case of B8, binding was characterised by a dissociation constant (Kd) of 1590 nM. Against the preceding molecule, the Kd is about 2.9-fold higher.

A further data set has as its target T1, BCMA (TNFRSF17). The data set is described as follows: ELONA; Kd determined but value only in FIG. 2. Conditions: tags: His-tag; label: 5'-biotin.
Take B9: the binding result is “binds”.

As for B10, the binding result was “binds”.

Take B11: the binding result is given as “binds”.

In the next data set the target is T1, BCMA (TNFRSF17). The data set is described as follows: ELONA. The conditions noted are these: tags: His-tag.
B12 displayed a Kd of around 64.2 nM.

Another data set concerns the target T1, BCMA (TNFRSF17). Briefly: ELONA; random region only. Conditions: tags: His-tag; label: 5'-biotin. The protocol:
as §1, §2
For the molecule TGTTGCTGTGCAGGAAGAATGCAGATTCCCAACAT (ssDNA) [10-8], binding was characterised by a dissociation constant (Kd) of 184 nM.

The record behind these values is patent US20250171787, “APTAMERS, PHARMACEUTICAL COMPOSITIONS THEREOF, AND METHODS FOR PREVENTING OR TREATING BCMA-ASSOCIATED DISEASES OR CONDITIONS” (Aptapeutics Limited, published 2025).
